# Positions of bridges follow the written chain, without caps; N, C: chain ends. Non-standard residues stand in square brackets, D forms with d. 2Nal = N[C@@H](Cc1ccc2ccccc2c1)C(=O)O; Phg = N[C@H](C(=O)O)c1ccccc1; Tle = CC(C)(C)[C@H](N)C(=O)O; Nle = CCCC[C@H](N)C(=O)O; AMF = not defined here
# B1: Compound 3 (peptide)
# peptide: {CH2CO}-FISGRNWVKWVC-NH2
# modifications: thioether N-12
# SMILES: CC[C@H](C)[C@@H]1NC(=O)[C@H](Cc2ccccc2)NC(=O)CSC[C@@H](C(N)=O)NC(=O)[C@H](C(C)C)NC(=O)[C@H](Cc2c[nH]c3ccccc23)NC(=O)[C@H](CCCCN)NC(=O)[C@H](C(C)C)NC(=O)[C@H](Cc2c[nH]c3ccccc23)NC(=O)[C@H](CC(N)=O)NC(=O)[C@H](CCCNC(=N)N)NC(=O)CNC(=O)[C@H](CO)NC1=O
# B2: Compound 9 (peptide)
# peptide: {CH2CO}-WISGRNWVKWVC-NH2
# modifications: thioether N-12
# SMILES: CC[C@H](C)[C@@H]1NC(=O)[C@H](Cc2c[nH]c3ccccc23)NC(=O)CSC[C@@H](C(N)=O)NC(=O)[C@H](C(C)C)NC(=O)[C@H](Cc2c[nH]c3ccccc23)NC(=O)[C@H](CCCCN)NC(=O)[C@H](C(C)C)NC(=O)[C@H](Cc2c[nH]c3ccccc23)NC(=O)[C@H](CC(N)=O)NC(=O)[C@H](CCCNC(=N)N)NC(=O)CNC(=O)[C@H](CO)NC1=O
# B3: Compound 1 (peptide)
# peptide: {CH2CO}-FISGRNWVVWVC-NH2
# modifications: thioether N-12
# SMILES: CC[C@H](C)[C@@H]1NC(=O)[C@H](Cc2ccccc2)NC(=O)CSC[C@@H](C(N)=O)NC(=O)[C@H](C(C)C)NC(=O)[C@H](Cc2c[nH]c3ccccc23)NC(=O)[C@H](C(C)C)NC(=O)[C@H](C(C)C)NC(=O)[C@H](Cc2c[nH]c3ccccc23)NC(=O)[C@H](CC(N)=O)NC(=O)[C@H](CCCNC(=N)N)NC(=O)CNC(=O)[C@H](CO)NC1=O
# B4: Compound 5 (peptide)
# peptide: {CH2CO}-FISGRNWVRWRC-NH2
# modifications: thioether N-12
# SMILES: CC[C@H](C)[C@@H]1NC(=O)[C@H](Cc2ccccc2)NC(=O)CSC[C@@H](C(N)=O)NC(=O)[C@H](CCCNC(=N)N)NC(=O)[C@H](Cc2c[nH]c3ccccc23)NC(=O)[C@H](CCCNC(=N)N)NC(=O)[C@H](C(C)C)NC(=O)[C@H](Cc2c[nH]c3ccccc23)NC(=O)[C@H](CC(N)=O)NC(=O)[C@H](CCCNC(=N)N)NC(=O)CNC(=O)[C@H](CO)NC1=O
# B5: Compound 11 (peptide)
# peptide: {CH2CO}-WISGRNWVRWVC-NH2
# modifications: thioether N-12
# SMILES: CC[C@H](C)[C@@H]1NC(=O)[C@H](Cc2c[nH]c3ccccc23)NC(=O)CSC[C@@H](C(N)=O)NC(=O)[C@H](C(C)C)NC(=O)[C@H](Cc2c[nH]c3ccccc23)NC(=O)[C@H](CCCNC(=N)N)NC(=O)[C@H](C(C)C)NC(=O)[C@H](Cc2c[nH]c3ccccc23)NC(=O)[C@H](CC(N)=O)NC(=O)[C@H](CCCNC(=N)N)NC(=O)CNC(=O)[C@H](CO)NC1=O
# B6: Compound 7 (peptide)
# peptide: {CH2CO}-FISGKNWVKWVC-NH2
# modifications: thioether N-12
# SMILES: CC[C@H](C)[C@@H]1NC(=O)[C@H](Cc2ccccc2)NC(=O)CSC[C@@H](C(N)=O)NC(=O)[C@H](C(C)C)NC(=O)[C@H](Cc2c[nH]c3ccccc23)NC(=O)[C@H](CCCCN)NC(=O)[C@H](C(C)C)NC(=O)[C@H](Cc2c[nH]c3ccccc23)NC(=O)[C@H](CC(N)=O)NC(=O)[C@H](CCCCN)NC(=O)CNC(=O)[C@H](CO)NC1=O
# B7: Compound 10 (peptide)
# peptide: {CH2CO}-FISGKNWVRWVC-NH2
# modifications: thioether N-12
# SMILES: CC[C@H](C)[C@@H]1NC(=O)[C@H](Cc2ccccc2)NC(=O)CSC[C@@H](C(N)=O)NC(=O)[C@H](C(C)C)NC(=O)[C@H](Cc2c[nH]c3ccccc23)NC(=O)[C@H](CCCNC(=N)N)NC(=O)[C@H](C(C)C)NC(=O)[C@H](Cc2c[nH]c3ccccc23)NC(=O)[C@H](CC(N)=O)NC(=O)[C@H](CCCCN)NC(=O)CNC(=O)[C@H](CO)NC1=O
# B8: Compound 2 (peptide)
# peptide: {CH2CO}-FRSGRNWVVWVC-NH2
# modifications: thioether N-12
# SMILES: CC(C)[C@@H]1NC(=O)[C@H](Cc2c[nH]c3ccccc23)NC(=O)[C@H](C(C)C)NC(=O)[C@H](C(C)C)NC(=O)[C@H](Cc2c[nH]c3ccccc23)NC(=O)[C@H](CC(N)=O)NC(=O)[C@H](CCCNC(=N)N)NC(=O)CNC(=O)[C@H](CO)NC(=O)[C@H](CCCNC(=N)N)NC(=O)[C@H](Cc2ccccc2)NC(=O)CSC[C@@H](C(N)=O)NC1=O
# B9: Compound 13 (peptide)
# peptide: {CH2CO}-FISGRTWVKWVC-NH2
# modifications: thioether N-12
# SMILES: CC[C@H](C)[C@@H]1NC(=O)[C@H](Cc2ccccc2)NC(=O)CSC[C@@H](C(N)=O)NC(=O)[C@H](C(C)C)NC(=O)[C@H](Cc2c[nH]c3ccccc23)NC(=O)[C@H](CCCCN)NC(=O)[C@H](C(C)C)NC(=O)[C@H](Cc2c[nH]c3ccccc23)NC(=O)[C@H]([C@@H](C)O)NC(=O)[C@H](CCCNC(=N)N)NC(=O)CNC(=O)[C@H](CO)NC1=O
# B10: Compound 6 (peptide)
# peptide: {CH2CO}-FRSGRNWVKWVC-NH2
# modifications: thioether N-12
# SMILES: CC(C)[C@@H]1NC(=O)[C@H](Cc2c[nH]c3ccccc23)NC(=O)[C@H](CCCCN)NC(=O)[C@H](C(C)C)NC(=O)[C@H](Cc2c[nH]c3ccccc23)NC(=O)[C@H](CC(N)=O)NC(=O)[C@H](CCCNC(=N)N)NC(=O)CNC(=O)[C@H](CO)NC(=O)[C@H](CCCNC(=N)N)NC(=O)[C@H](Cc2ccccc2)NC(=O)CSC[C@@H](C(N)=O)NC1=O
# B11: Compound 4 (peptide)
# peptide: {CH2CO}-FISGRNWVRWVC-NH2
# modifications: thioether N-12
# SMILES: CC[C@H](C)[C@@H]1NC(=O)[C@H](Cc2ccccc2)NC(=O)CSC[C@@H](C(N)=O)NC(=O)[C@H](C(C)C)NC(=O)[C@H](Cc2c[nH]c3ccccc23)NC(=O)[C@H](CCCNC(=N)N)NC(=O)[C@H](C(C)C)NC(=O)[C@H](Cc2c[nH]c3ccccc23)NC(=O)[C@H](CC(N)=O)NC(=O)[C@H](CCCNC(=N)N)NC(=O)CNC(=O)[C@H](CO)NC1=O
# B12: Compound 12 (peptide)
# peptide: {CH2CO}-FITGRNWVKWVC-NH2
# modifications: thioether N-12
# SMILES: CC[C@H](C)[C@@H]1NC(=O)[C@H](Cc2ccccc2)NC(=O)CSC[C@@H](C(N)=O)NC(=O)[C@H](C(C)C)NC(=O)[C@H](Cc2c[nH]c3ccccc23)NC(=O)[C@H](CCCCN)NC(=O)[C@H](C(C)C)NC(=O)[C@H](Cc2c[nH]c3ccccc23)NC(=O)[C@H](CC(N)=O)NC(=O)[C@H](CCCNC(=N)N)NC(=O)CNC(=O)[C@H]([C@@H](C)O)NC1=O
# B13: Compound 47 (peptide)
# peptide: {CH2CO}-FISGRNWV[AMF]WVC-NH2
# modifications: thioether N-12; reading uncertain
# B14: Compound 50 (peptide)
# peptide: {CH2CO}-[2Nal][Tle]SGRNWVKWVC-NH2
# modifications: thioether N-12
# SMILES: CC(C)[C@@H]1NC(=O)[C@H](Cc2c[nH]c3ccccc23)NC(=O)[C@H](CCCCN)NC(=O)[C@H](C(C)C)NC(=O)[C@H](Cc2c[nH]c3ccccc23)NC(=O)[C@H](CC(N)=O)NC(=O)[C@H](CCCNC(=N)N)NC(=O)CNC(=O)[C@H](CO)NC(=O)[C@H](C(C)(C)C)NC(=O)[C@H](Cc2ccc3ccccc3c2)NC(=O)CSC[C@@H](C(N)=O)NC1=O
# B15: Compound 46 (peptide)
# peptide: {CH2CO}-FISGRNWV[3MH]WVC-NH2
# modifications: thioether N-12
# B16: Compound 48 (peptide)
# peptide: {CH2CO}-[2Nal][Nle]SGRNWVKWVC-NH2
# modifications: thioether N-12
# SMILES: CCCC[C@@H]1NC(=O)[C@H](Cc2ccc3ccccc3c2)NC(=O)CSC[C@@H](C(N)=O)NC(=O)[C@H](C(C)C)NC(=O)[C@H](Cc2c[nH]c3ccccc23)NC(=O)[C@H](CCCCN)NC(=O)[C@H](C(C)C)NC(=O)[C@H](Cc2c[nH]c3ccccc23)NC(=O)[C@H](CC(N)=O)NC(=O)[C@H](CCCNC(=N)N)NC(=O)CNC(=O)[C@H](CO)NC1=O
# B17: Compound 49 (peptide)
# peptide: {CH2CO}-[2Nal][Phg]SGRNWVKWVC-NH2
# modifications: thioether N-12
# SMILES: CC(C)[C@@H]1NC(=O)[C@H](Cc2c[nH]c3ccccc23)NC(=O)[C@H](CCCCN)NC(=O)[C@H](C(C)C)NC(=O)[C@H](Cc2c[nH]c3ccccc23)NC(=O)[C@H](CC(N)=O)NC(=O)[C@H](CCCNC(=N)N)NC(=O)CNC(=O)[C@H](CO)NC(=O)[C@H](c2ccccc2)NC(=O)[C@H](Cc2ccc3ccccc3c2)NC(=O)CSC[C@@H](C(N)=O)NC1=O
# Target: Recombinant-hTSP1 (human, UniProt P07996 19-1170, limits assumed)
# Assay: SPR (Biacore T200), single-cycle kinetics, recombinant hTSP1 immobilised on NTA chip
# Description: First, 500 μM NiCl₂ was injected over an NTA-Chip (produced by GE Healthcare, BR100532) at a flow rate of 5 μL/min. for 1 minute to thereby activate NTA groups. Then, an EDC/NHS mixture was injected at a flow rate of 10 μL/min. for 7 minutes to thereby activate the carboxyl groups of dextran. Recombinant-hTSP1 was injected at a flow rate of 10 μL/min. for 7 minutes to immobilize the TSP1 on the substrate surfaces with activated NTA and carboxyl groups. Ethanolamine was injected at a flow rate of 10 μL/min. for 7 minutes to thereby deactivate unreacted, activated carboxyl groups.
# Since Biacore T200 is highly responsive to change in DMSO concentrations, DMSO solutions were sequentially injected at concentrations of 4%, 4.4%, 4.8%, 5.2%, 5.6%, and 6% to correct for DMSO effects.
# The analysis was conducted using the evaluation software provided with Biacore T100 and T200. A DMSO correction curve obtained by solvent correction measurements was applied for the analysis. Kinetics fitting was done on the difference data obtained by subtracting the baseline data from sample measurement data.
# Recombinant-hTSP1, sequence (P07996 19-1170 limits assumed): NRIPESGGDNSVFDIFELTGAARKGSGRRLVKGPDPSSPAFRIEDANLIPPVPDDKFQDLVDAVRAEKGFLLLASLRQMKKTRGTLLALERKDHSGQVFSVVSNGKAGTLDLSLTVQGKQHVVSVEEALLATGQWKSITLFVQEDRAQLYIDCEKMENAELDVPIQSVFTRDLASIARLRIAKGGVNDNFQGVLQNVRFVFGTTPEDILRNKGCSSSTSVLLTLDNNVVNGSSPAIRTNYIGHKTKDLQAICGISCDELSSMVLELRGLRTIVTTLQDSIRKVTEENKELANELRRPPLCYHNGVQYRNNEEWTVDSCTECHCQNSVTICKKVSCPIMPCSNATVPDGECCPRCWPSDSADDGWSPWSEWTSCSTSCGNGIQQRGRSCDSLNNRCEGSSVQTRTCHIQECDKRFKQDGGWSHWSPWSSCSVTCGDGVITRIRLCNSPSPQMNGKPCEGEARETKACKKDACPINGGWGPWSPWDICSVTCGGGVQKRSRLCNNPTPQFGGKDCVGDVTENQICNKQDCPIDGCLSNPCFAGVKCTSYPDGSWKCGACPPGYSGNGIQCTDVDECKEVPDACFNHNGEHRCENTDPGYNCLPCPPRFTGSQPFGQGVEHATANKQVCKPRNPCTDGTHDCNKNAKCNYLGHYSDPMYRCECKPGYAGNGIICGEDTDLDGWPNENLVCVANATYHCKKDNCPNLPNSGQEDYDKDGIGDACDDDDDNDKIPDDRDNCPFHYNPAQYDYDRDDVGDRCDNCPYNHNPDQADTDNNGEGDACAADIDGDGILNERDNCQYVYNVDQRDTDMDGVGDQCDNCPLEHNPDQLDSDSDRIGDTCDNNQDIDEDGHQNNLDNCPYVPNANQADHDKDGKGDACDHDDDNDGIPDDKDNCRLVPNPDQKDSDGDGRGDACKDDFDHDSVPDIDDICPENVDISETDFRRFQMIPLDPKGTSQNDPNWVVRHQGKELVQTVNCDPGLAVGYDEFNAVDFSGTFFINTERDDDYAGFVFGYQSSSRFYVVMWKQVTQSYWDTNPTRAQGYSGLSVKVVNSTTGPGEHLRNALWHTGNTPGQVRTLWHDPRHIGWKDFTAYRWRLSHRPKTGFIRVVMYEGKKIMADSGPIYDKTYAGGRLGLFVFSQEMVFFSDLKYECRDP
row,Kd [nM],Binder
1,0.25,B1
2,0.23,B2
3,0.51,B3
4,0.9,B4
5,0.14,B5
6,0.12,B6
7,0.091,B7
8,0.15,B8
9,0.096,B9
10,0.44,B10
11,0.26,B11
12,0.38,B12

# Target: T1, Thrombospondin human platelet (Calbiochem, 605225) (human, UniProt P07996 19-1170)
# Assay: cell-based or functional assay
# T1 sequence (P07996 19-1170 limits assumed): as above
row,Cell adhesion IC50 [nM],Binder
1,16.7,B13
2,11.6,B14
3,30.3,B15
4,10.4,B16
5,11.5,B17

# Target: T1, Thrombospondin human platelet …
# Assay: cell-based or functional assay
# Remark: another data set of the same source
row,Cell adhesion IC50 [nM],Binder
1,20.8,B1
2,27.3,B2
3,34.9,B3
4,33.4,B4
5,26.3,B5
6,20.6,B6
7,10.9,B7
8,25.5,B8
9,18.7,B9
10,27.3,B10
11,11.2,B11
12,22.2,B12
